Target: C-terminally strep-tagged wild-type GRK5 (human) (UniProt P34947)
Experiment: ITC

Sequence of UniProt P34947 (P34947 whole entry): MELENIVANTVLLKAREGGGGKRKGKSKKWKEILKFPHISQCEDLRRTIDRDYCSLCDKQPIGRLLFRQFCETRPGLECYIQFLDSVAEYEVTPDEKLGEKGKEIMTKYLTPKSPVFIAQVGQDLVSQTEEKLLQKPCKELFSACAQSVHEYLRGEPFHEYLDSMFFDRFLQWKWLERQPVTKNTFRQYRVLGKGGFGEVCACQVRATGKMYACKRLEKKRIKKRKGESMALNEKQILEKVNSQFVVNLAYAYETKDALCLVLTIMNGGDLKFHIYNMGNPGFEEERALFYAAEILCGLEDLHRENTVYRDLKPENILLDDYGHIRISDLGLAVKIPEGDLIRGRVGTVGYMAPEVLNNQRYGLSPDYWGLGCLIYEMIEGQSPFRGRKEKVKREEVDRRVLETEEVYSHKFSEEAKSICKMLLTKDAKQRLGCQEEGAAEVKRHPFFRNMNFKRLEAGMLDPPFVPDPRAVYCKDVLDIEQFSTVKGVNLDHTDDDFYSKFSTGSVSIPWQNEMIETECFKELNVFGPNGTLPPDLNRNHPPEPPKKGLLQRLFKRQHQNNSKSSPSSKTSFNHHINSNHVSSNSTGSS

## wild-type rat calmodulin (from UniProt P0DP29 1-149) (natural protein; other documents disagree on this pair)
  Kd: 278 nM
  dH: 4.3 kcal/mol

Reference: publication PMC7855534
